Test results as given in PMC10397247.

Assays:
Experiment in all cases: two-hybrid library CCmax;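 note: natural log of median RNA to DNA barcode read ratio; higher means stronger binding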
[1] = molecular target: T1, 4H380-AA; conditions: mean of both orientations
T1 chain: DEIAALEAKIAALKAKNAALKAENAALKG

[2] = molecular target: T2, 4H2699-AA; conditions: mean of both orientations
T2 chain: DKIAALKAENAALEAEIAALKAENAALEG

[3] = molecular target: T3, 4H2774-AA; conditions: mean of both orientations
T3 chain: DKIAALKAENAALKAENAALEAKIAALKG

[4] = molecular target: T4, 4H1349-AA; conditions: mean of both orientations
T4 chain: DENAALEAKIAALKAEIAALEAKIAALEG

[5] = molecular target: T5, 4H446-AA; conditions: mean of both orientations
T5 chain: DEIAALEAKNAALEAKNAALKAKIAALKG

[6] = molecular target: T6, 4H1558-AA; conditions: mean of both orientations
T6 chain: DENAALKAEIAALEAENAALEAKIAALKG

[7] = molecular target: T7, 4H483-AA; conditions: mean of both orientations
T7 chain: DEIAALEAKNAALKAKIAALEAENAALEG

[8] = molecular target: T8, 4H249-AA; conditions: mean of both orientations
T8 chain: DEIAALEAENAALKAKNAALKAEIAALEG

[9] = molecular target: T9, 4H2621-AA; conditions: mean of both orientations
T9 chain: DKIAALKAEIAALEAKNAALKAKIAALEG

[10] = molecular target: T10, 4H130-AA
T10 chain: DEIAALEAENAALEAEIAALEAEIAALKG

[11] = molecular target: T11, 4H3414-AA; conditions: mean of both orientations
T11 chain: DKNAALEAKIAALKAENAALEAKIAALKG

[12] = molecular target: T12, 4H3629-AA; conditions: mean of both orientations
T12 chain: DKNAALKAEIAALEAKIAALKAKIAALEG

[13] = molecular target: T13, 4H1454-AA; conditions: mean of both orientations
T13 chain: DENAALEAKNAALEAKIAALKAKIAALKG

[14] = molecular target: T14, 4H1913-AA; conditions: mean of both orientations
T14 chain: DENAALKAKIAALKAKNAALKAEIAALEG

[15] = molecular target: T15, 4H3129-AA; conditions: mean of both orientations
T15 chain: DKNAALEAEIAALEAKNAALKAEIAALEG

[16] = molecular target: T16, 4H2903-AA; conditions: mean of both orientations
T16 chain: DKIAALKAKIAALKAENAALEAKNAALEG

[17] = molecular target: T17, 4H464-AA; conditions: mean of both orientations
T17 chain: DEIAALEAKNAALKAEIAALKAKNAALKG

[18] = molecular target: T18, 4H2580-AA; conditions: mean of both orientations
T18 chain: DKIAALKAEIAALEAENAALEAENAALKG

[19] = molecular target: T19, 4H3049-AA; conditions: mean of both orientations
T19 chain: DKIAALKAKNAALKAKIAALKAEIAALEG

[20] = molecular target: T20, 4H3782-AA; conditions: mean of both orientations
T20 chain: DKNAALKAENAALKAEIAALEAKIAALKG

[21] = molecular target: T21, 4H2961-AA
T21 chain: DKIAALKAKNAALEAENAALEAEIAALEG

[22] = molecular target: T22, 4H3595-AA; conditions: mean of both orientations
T22 chain: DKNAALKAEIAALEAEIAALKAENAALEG

[23] = molecular target: T23, 4H3969-AA; conditions: mean of both orientations
T23 chain: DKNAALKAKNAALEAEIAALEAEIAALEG

[24] = molecular target: T24, 4H3939-AA; conditions: mean of both orientations
T24 chain: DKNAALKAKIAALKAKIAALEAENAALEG

[25] = molecular target: T25, 4H2728-AA; conditions: mean of both orientations
T25 chain: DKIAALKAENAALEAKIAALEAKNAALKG

[26] = molecular target: T26, 4H1360-AA; conditions: mean of both orientations
T26 chain: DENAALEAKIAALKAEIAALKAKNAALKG

[27] = molecular target: T27, 4H63-AA; conditions: mean of both orientations
T27 chain: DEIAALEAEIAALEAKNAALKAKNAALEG

[28] = molecular target: T28, 4H341-AA; conditions: mean of both orientations
T28 chain: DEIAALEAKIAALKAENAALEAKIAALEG

With DEIAALEAENAALEAEIAALEAEIAALKG [4H130-AA] the interaction score [1] was -0.0955, the interaction score [2] was -0.46 and the interaction score [3] was 0.9. For the same binder, the interaction score [4] was -0.443, the interaction score [5] was 1.05 and the interaction score [6] was -0.952. For the same binder, the interaction score [7] was 0.0918, the interaction score [8] was 1.18 and the interaction score [9] was 0.962. It also gave an interaction score [10] of 1.11, an interaction score [11] of 1 and an interaction score [12] of 0.896. For the same binder, the interaction score [13] was 1.52, the interaction score [14] was 1.08 and the interaction score [15] was -0.746. It also gave an interaction score [16] of -1.15, an interaction score [17] of 1.95 and an interaction score [18] of -1.46. The interaction score [19] was 1.67, the interaction score [20] was 1.3 and the interaction score [21] was -0.589. For the same binder, the interaction score [22] was 0.698, the interaction score [23] was -0.404 and the interaction score [24] was 1.29. It also gave an interaction score [25] of 0.54, an interaction score [26] of 1.22 and an interaction score [27] of -1.29. It also gave an interaction score [28] of 0.154.
